Assay results published in US20180231560A1.

Target: c-MET protein (Homo sapiens (Human)) (UniProt P08581)
Test: immunomagnetic capture of spiked c-MET expressing cell lines by anti-c-MET ferrofluid

Chain of UniProt P08581 (P08581 25-1390 limits assumed): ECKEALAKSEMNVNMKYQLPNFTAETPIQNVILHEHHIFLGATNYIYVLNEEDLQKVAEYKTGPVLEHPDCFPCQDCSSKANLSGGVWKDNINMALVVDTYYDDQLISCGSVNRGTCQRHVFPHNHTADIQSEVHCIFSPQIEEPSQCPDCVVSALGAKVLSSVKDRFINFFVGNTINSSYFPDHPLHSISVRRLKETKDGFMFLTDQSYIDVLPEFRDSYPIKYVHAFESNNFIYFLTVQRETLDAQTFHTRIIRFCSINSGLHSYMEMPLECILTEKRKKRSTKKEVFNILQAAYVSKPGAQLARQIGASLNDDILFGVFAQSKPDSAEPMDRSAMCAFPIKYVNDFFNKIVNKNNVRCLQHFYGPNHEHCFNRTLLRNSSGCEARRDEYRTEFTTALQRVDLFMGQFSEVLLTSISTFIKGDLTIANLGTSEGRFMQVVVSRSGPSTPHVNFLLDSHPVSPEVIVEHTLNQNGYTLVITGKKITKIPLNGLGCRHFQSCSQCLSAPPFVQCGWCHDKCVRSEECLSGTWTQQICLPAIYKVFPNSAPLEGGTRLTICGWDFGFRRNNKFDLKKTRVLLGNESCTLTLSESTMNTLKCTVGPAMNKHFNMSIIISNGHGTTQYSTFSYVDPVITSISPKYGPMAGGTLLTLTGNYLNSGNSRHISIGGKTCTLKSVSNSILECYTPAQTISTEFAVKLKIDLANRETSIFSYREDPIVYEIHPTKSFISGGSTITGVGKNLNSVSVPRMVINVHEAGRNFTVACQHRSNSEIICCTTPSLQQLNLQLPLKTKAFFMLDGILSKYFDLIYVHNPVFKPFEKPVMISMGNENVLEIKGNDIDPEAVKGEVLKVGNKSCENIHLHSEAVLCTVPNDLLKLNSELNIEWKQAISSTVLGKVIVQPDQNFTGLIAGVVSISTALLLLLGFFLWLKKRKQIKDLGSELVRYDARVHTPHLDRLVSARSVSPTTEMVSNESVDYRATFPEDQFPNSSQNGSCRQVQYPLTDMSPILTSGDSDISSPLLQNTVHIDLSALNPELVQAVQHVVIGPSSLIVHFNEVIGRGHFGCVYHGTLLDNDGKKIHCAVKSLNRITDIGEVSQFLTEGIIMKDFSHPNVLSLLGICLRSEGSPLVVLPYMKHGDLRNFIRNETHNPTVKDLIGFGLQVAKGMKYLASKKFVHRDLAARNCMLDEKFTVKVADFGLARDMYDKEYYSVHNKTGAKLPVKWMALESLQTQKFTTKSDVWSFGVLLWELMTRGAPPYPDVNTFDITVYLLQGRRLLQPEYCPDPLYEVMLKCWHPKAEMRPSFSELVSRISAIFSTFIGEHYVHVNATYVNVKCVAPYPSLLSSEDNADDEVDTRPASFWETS

recovery of c-MET cells: 20 to 40%
Substance: HGF R/c-MET Antibody clone L6E7 (Cell Signaling Technologies), as anti-c-MET ferrofluid
